Measured values as given in the supplement of paper PMC10126150.
± gives the standard deviation of the averaged measurements.

Tested on: ATP
Assay: switch fluorescence ratio, 500 uM ATP over buffer (Cy3 cluster intensity, sum of 5 cycles each) (fold (ratio)); higher = stronger signal-on switching upon ATP binding; sequences stand for … in TCGTCGGCAGCGTCAGATGTGTATAAGAGACAGTTTTTTTTTTTTTTTTTTTTTTTTT…TC
Details: aptamer strand: ATP DNA aptamer (quencher-CACCTGGGGGAGTATTGCGGAGGAAGG + anchor), 100 nM annealed; ATP concentration: 500 uM
Summary of the method: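 Cy3-labelled switching-strand clusters on a modified Illumina MiSeq flow-cell were annealed to 100 nM quencher-labelled ATP aptamer, imaged in selection buffer, then imaged after 15 min with 500 uM ATP at 22 °C. Five buffer/ATP cycles ran, with NaOH stripping and re-annealing between them. The fluorescence ratio is summed target-cycle over summed buffer-cycle Cy3 intensity per cluster, averaged per switch-domain sequence. Clusters outside 100-1000 RFU were excluded.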
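Note: ATP exposure 15 min at 22 °C before imaging.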

Sequence | switch fluorescence ratio
TGGGGGGGTT | 1 ± 0.034
TGGGGGGTCG | 1.03 ± 0.051
TGGGGGGTTC | 1.04 ± 0.082
TGGGGGGTTT | 1 ± 0.04
TGGGGGTAGC | 1.001 ± 0.0091
TGGGGGTATT | 1.05 ± 0.16
TGGGGGTCAC | 0.9632 ± 0.0067
TGGGGGTCGG | 1.03 ± 0.017
TGGGGGTCTG | 1.01 ± 0.045
TGGGGGTGG | 0.957 ± 0.046
TGGGGGTGTC | 1.03 ± 0.024
TGGGGTAATG | 0.995 ± 0.038
TGGGGTATAA | 1.001 ± 0.0042
TGGGGTATTT | 0.997 ± 0.04
TGGGGTCCGG | 0.97 ± 0.079
TGGGGTGGAG | 0.97 ± 0.032
TGGGGTGGCG | 1.01 ± 0.067
TGGGGTTAGA | 0.978 ± 0.029
TGGGGTTAGG | 1 ± 0.024
TGGGGTTGCA | 0.99 ± 0.015
TGGGGTTGGA | 1.01 ± 0.025
TGGGGTTTGT | 0.976 ± 0.03
TGGGTAACAT | 0.99 ± 0.031
TGGGTAGGAA | 1.0335 ± 0.00064
TGGGTAGGGT | 0.991 ± 0.036

Sequence | switch fluorescence ratio
TGGGTAGGTG | 1.11 ± 0.028
TGGGTAGTTT | 1 ± 0.015
TGGGTATGGG | 1.01 ± 0.037
TGGGTATTCG | 0.967 ± 0.029
TGGGTCAAAT | 1.02 ± 0.027
TGGGTCACAA | 0.992 ± 0.024
TGGGTCATCT | 1.02 ± 0.065
TGGGTCATGA | 1.03 ± 0.034
TGGGTCATTG | 0.973 ± 0.043
TGGGTCCAGT | 0.98 ± 0.011
TGGGTCTAGG | 0.99 ± 0.043
TGGGTCTGTT | 1.01 ± 0.046
TGGGTGGGGC | 0.997 ± 0.018
TGGGTGGGGT | 1.01 ± 0.026
TGGGTGGTCA | 0.987 ± 0.06
TGGGTGTAGC | 0.986 ± 0.011
TGGGTGTATA | 1.01 ± 0.017
TGGGTGTGGG | 1.02 ± 0.028
TGGGTTAACT | 1.02 ± 0.041
TGGGTTAATC | 1.01 ± 0.052
TGGGTTACTT | 0.995 ± 0.053
TGGGTTAGGG | 1.03 ± 0.044
TGGGTTATCT | 0.972 ± 0.028
TGGGTTCGCG | 0.988 ± 0.021
TGGGTTCGGG | 0.9503 ± 0.0091

Sequence | switch fluorescence ratio
TGGGTTGAGT | 0.987 ± 0.017
TGGGTTGATA | 0.9958 ± 0.0069
TGGGTTGGCC | 0.99 ± 0.043
TGGGTTGGCG | 1.04 ± 0.028
TGGGTTGGCT | 1.015 ± 0.0098
TGGGTTGGTA | 1.02 ± 0.02
TGGGTTGGTG | 1.03 ± 0.032
TGGGTTGTGG | 1.01 ± 0.053
TGGGTTTAAC | 1.08 ± 0.18
TGGGTTTCCT | 0.987 ± 0.017
TGGGTTTGGG | 0.984 ± 0.035
TGGGTTTTAC | 1.01 ± 0.049
TGGGTTTTGC | 0.994 ± 0.044
TGGGTTTTTC | 0.968 ± 0.03
TGGTAAAAAA | 0.959 ± 0.016
TGGTAACAGG | 1.01 ± 0.021
TGGTACAAAA | 1.04 ± 0.025
TGGTACAGGG | 1.03 ± 0.018
TGGTACGGAG | 1 ± 0.011
TGGTAGACGG | 1.15 ± 0.26
TGGTAGGCGT | 0.987 ± 0.031
TGGTAGGGGG | 0.9867 ± 0.0046
TGGTATAGGG | 1.01 ± 0.024
TGGTATAGTT | 0.981 ± 0.049
TGGTATTCGC | 1.01 ± 0.023

Sequence | switch fluorescence ratio
TGGTATTGGT | 0.9655 ± 0.0041
TGGTCAAAGA | 0.986 ± 0.015
TGGTCAGGGG | 1.09 ± 0.056
TGGTCCGGGA | 1.03 ± 0.029
TGGTCGCAGG | 0.9899 ± 0.005
TGGTCGCGAT | 1.53 ± 0.73
TGGTCGGGGG | 0.997 ± 0.025
TGGTCGTAGT | 0.994 ± 0.048
TGGTCTAATG | 0.9791 ± 0.002
TGGTGCGGGC | 1.05 ± 0.12
TGGTGCTGGG | 0.9733 ± 0.0066
TGGTGGAAAC | 0.99116 ± 0.00084
TGGTGGAGAT | 1.01 ± 0.028
TGGTGGAGCA | 0.986 ± 0.024
TGGTGGGGCT | 0.994 ± 0.026
TGGTGGGGTT | 0.984 ± 0.02
TGGTGGTGCA | 1.04 ± 0.039
TGGTGGTGTA | 0.954 ± 0.035
TGGTGTATCC | 0.985 ± 0.019
TGGTGTCAAT | 1 ± 0.017
TGGTGTCAGT | 0.977 ± 0.022
TGGTGTCGGG | 0.998 ± 0.013
TGGTGTCGTG | 0.999 ± 0.034
TGGTGTTTTT | 0.992 ± 0.027
TGGTTACCAT | 1.02 ± 0.057
